Experimental findings from publication doi:10.1101/2021.02.09.429966 (bioRxiv, 2021) are described below.

This experiment deals with Clumping factor A (ClfA) on S. aureus LACΔspaΔsbi (Staphylococcus aureus USA300 LAC Δspa, …, UniProt A0A0H2XG16). The experiment is described as follows: flow cytometry on cells. Background: Flow cytometry measures light scatter and fluorescence of single cells or particles in a stream.

B1: T1-2-IgG1 (antibody, V domains shown)
VH: QVQLKESGPGLVAPSQSLSITCAISGFSLSRYSVHWVRQPPGKGLEWLGMIWGGGNTDYNSALKSRLSISKDNSKSQVFLKMNSLQTDDTAMYYCARKGEFYYGYDGFVYWGQGTLVTVSA
VL: NIMMTQSPSSLAVSAGEKVTMSCKSSQSVLYSSNQKNYLAWYQQKPGQSPKLLIYWASTRESGVPDRFTGSGSGTDFTLTISSVQAEDLAVYYCHQYLSSYTFGGGTKLEIK
For B1, the binding result was “binds”.
